Reference: US20110319287A1, “MODULATOR ASSAY” (ADDEX PHARMA S.A., priority 2009, published 2011)

T1: TL1A-activated DR3 receptor (Homo sapiens, UniProt Q93038, P167L)
T1 construct: (N); expressed in transfected cells; host or cells: HeLa Tet-On cells stably expressing TRADD-EYFP, transfected with pTRE2-DR3 (HeLa TRADD DR3)
T1 sequence (Q93038 with tags, fused parts or gaps P167L): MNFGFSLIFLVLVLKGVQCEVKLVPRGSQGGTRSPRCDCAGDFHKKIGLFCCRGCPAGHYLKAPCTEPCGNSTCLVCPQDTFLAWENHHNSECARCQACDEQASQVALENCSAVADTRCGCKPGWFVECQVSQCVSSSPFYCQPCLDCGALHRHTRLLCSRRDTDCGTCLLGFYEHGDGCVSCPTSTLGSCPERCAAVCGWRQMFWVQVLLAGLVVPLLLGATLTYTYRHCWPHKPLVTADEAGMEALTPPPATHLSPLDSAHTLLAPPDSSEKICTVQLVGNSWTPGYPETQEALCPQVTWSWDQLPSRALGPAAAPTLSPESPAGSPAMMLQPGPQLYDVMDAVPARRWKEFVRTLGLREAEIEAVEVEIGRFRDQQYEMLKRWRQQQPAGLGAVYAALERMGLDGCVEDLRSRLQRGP

T2: TL1A-activated DR3 receptor (Homo sapiens, UniProt Q93038)
T2 construct: (N); expressed in transfected cells; host or cells: HeLa Tet-On cells stably expressing TRADD-EYFP, transfected with pTRE2-DR3 (HeLa TRADD DR3)
T2 sequence (Q93038 with tags, fused parts or gaps P167L): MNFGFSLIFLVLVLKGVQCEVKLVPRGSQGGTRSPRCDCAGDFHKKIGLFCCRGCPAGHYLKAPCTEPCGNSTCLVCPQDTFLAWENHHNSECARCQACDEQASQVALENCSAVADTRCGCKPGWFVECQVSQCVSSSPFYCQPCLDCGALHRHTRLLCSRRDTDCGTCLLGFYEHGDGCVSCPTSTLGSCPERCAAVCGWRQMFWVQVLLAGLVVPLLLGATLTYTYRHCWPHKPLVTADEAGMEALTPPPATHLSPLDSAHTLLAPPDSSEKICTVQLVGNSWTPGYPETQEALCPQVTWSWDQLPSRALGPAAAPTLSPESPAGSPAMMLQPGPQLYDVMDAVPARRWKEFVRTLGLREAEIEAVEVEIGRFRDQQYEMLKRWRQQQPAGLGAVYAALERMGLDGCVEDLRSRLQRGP


How the values were obtained:
[1] = tested on: TNF-induced TRADD relocalisation in HeLa TRADD DR3 cells; test: TNF-induced TRADD-EYFP relocation in HeLa TRADD DR3 recombinant cells (Example 3); assay type: cell-based, human; settings: in the presence of 100 ng/ml TNF; FIG. 19
From the text: (§1) In a further example of the present invention, a method involving the TL1A-activated DR3 receptor was developed. The TRADD-EYFP HeLa clones comprising the TRADD-EYFP reporter molecule transfected into HeLa cells as described in Example 1 was employed. The DR3 receptor (cDNA sequence shown in SEQ ID NO: 19 and encoded protein shown in SEQ ID NO: 20) which had been cloned in the vector pCR3.1 (Invitrogen) was transferred into the vector pTre2 (Clontech) using the Gateway® cloning technique with the primers Attb1 Forward primer (SEQ ID NO: 21) and Attb2 Reverse primer (SEQ ID NO: 22), yielding a pTRE2-DR3 expression vector (SEQ ID NO: 23). This expression vector was then transfected into the TRADD-EYFP HeLa clones to produce a double transformants designated HeLa TRADD DR3.
(§2) Monitoring and quantification of the TRADD-EYFP reporter molecule was conducted as described in Examples 1 and 2 above. […] The data of FIG. 17 are depicted graphically in FIG. 18.

[2] = biological target: T1, TL1A-activated DR3 receptor; test: TL1A-induced TRADD-EYFP relocation in HeLa TRADD DR3 recombinant cells (Example 3); assay type: cell-based; settings: in the presence of 300 ng/ml TL1A; FIG. 17
From the text: as §1, §2

[3] = biological target: T2, TL1A-activated DR3 receptor; test: as above; assay type: cell-based; settings: in the presence of 300 ng/ml TL1A; FIG. 17
From the text: as §1, §2

[4] = tested on: TNF-induced relocalisation of EYFP-TRADD (TNFR1-containing complex I) in HeLa cells; test: TNF-mediated relocation of fluorescently tagged TRADD in Clone #49-E2 HeLa cells, 384-well (Example 2); assay type: cell-based, human; settings: added instead of TNF; FIG. 12
Protocol: The following experimental procedure to detect the reporter molecule in the presence of absence of a “test” compound (or molecule, as described below) was conducted.
On day 1, 10^3 cells per well were plated in thin glass bottom 384 wells plate in 50 μl of culture media (DMEM glutamax, 10% FBS, peni-strep, geneticin, hygromycin). The cells were incubated overnight at 37° C. On day 2, media was aspirated, and 35 μl of warm DMEM, 2, 5% FBS, HEPES 10 mM added. Then, 15 μl of 4× the test compound diluted in DMEM, 2, 5% FBS, HEPES 10 mM was added to cells using a Biomek laboratory automation workstation (Beckman-Coulter). This was incubated at room temperature for 1.5 min. […] The cells were washed three times with PBS 1× using an Embla 384 Cell Washer (Molecular Devices). Cells were fixed by adding PBS 1×, 5% PFA+Hoescht 0.2 μg/ml using a Multidrop 384 dispensor (Thermo Scientific; 30 μl/well) followed by an incubation for 20 min at room temperature in the dark. After a further three washes of the cells with PBS 1× using the Embla 384 Cell Washer, 60 μl per well of PBS 1×, 1% peni-strep was added. The plate was covered with a transparent sealing film. Readings were then taken on the Scientific Cellomics ArrayScan HCS Reader automated microscope system as used in Example 1.

| dose-dependent inhibition of TL1A-induced relocalisation [2] | IC50 on TL1A-induced relocalisation [3] [µg/mL] | Molecule | dose-dependent inhibition of TNF-induced relocalisation [1] | selectivity: relocalisation of the reporter molecule EYFP-TRADD effected by other compounds or molecules [4] |
| --- | --- | --- | --- | --- |
| dose-dependently inhibited | 1.41 | DcR3: DR3 inhibitor; Recombinant Human DcR3/TNFRSF6B/Fc Chimera from R&D Systems (protein, left off: a dimerising Fc or GST, Recombinant Human DcR3/TNFRSF6B/Fc Chimera from R&D Systems) VAETPTYPWRDAETGERLVCAQCPPGTFVQRPCRRDSPTTCGPCPPRHYTQFWNYLERCRYCNVLCGEREEEARACHATHNRACRCRTGFFAHAGFCLEHASCPPGAGVIAPGTPSQNTQCQPCPPGTFSASSSSSEQCQPHRNCTALGLALNVPGSSSHDTLCTSCTGFPLSTRVPGAEECERAVIDFVAFQDISIKRLQRLLQALEAPEGWGPTPRAGRAALQLKLRRRLTELLGAQDGALLVRLLQALRVARMPGLERSVRERFLPVH | not |  |
|  |  | CD40L: Fc [human]: CD40L [human] from Apotech Corporation (protein, left off: a dimerising Fc or GST, Fc [human]: CD40L [human] from Apotech Corporation) GDQNPQIAAHVISEASSKTTSVLQWAEKGYYTMSNNLVTLENGKQLTVKRQGLYYIYAQVTFCSNREASSQAPFIASLCLKSPGRFERILLRAANTHSSAKPCGQQSIHLGGVFELQPGASVFVNVTDPSQVSHGTGFTSFGLLKL |  | not effected |
